The text below walks through data of US20230220067A1 (Johns Hopkins, published 2023).

Where a chain is given by its changes, count along the chain named.

One experiment addresses human FcγIII (human, UniProt P08637 17-254). Description: cell-based or functional assay.
Experiment [1] deals with T1, potassium two pore domain channel subfamily K member 9 (KCNK9) (human, UniProt Q9NPC2 1-374).
T1 construct: whole, on cells; also called human KCNK9
Description: flow cytometry of KCNK9-expressing cells, anti-human Fc PE secondary. An excerpt: After antibody sequence analysis and structure modeling, the murine antibody CDRs (SEQ ID NOs: 3-8) were grafted into human antibody VK3-11 and VH1-3 frameworks. Critical murine antibody framework residues that support CDR conformation were identified and introduced into the human frameworks. Five variants of the humanized VH sequences (VH1-5; SEQ ID NOs: 9-13) and three variants of the humanized VL variants (VL1-3; SEQ ID NOs: 14-16) were designed and synthesized. All of the variable regions were cloned into a human IgG1 expression vector. The VHs and VLs were cross-matched to generate 15 humanized KCNK9 antibody clones. All humanized antibodies were produced by transient transfection in 293 cells and purified by Protein A chromatography. Antigen binding of the humanized KCNK9 antibodies was characterized by immunofluorescence staining of KCNK9-expressing cells.
(Flow cytometry measures light scatter and fluorescence of single cells or particles in a stream.)

For experiment [2], the target named is T1, potassium two pore domain channel …. Description: flow cytometry on induced KCNK9-expressing HEK293 cells, anti-human Fc FITC secondary. An excerpt:
An anti-KCNK9 mouse monoclonal antibody having a VH amino acid sequence of SEQ ID NO: 1 and a VL amino acid sequence of SEQ ID NO: 2 (mu-mAb) was humanized using a method based on Queen et al., Proc. Natl. Acad. Sci. USA, 86: 10029-10033 (1989). The hybridoma antibody was sequenced after amplifying the antibody variable regions by RT-PCR with degenerate primers. The variable regions were fused with the human antibody IgG1 constant regions to produce a chimeric antibody. Antigen binding of the chimeric antibody was confirmed by staining of the KCNK9-expressing cells. HEK293 cells were stably transfected with KCNK9 expression vector under the tetracycline inducible promoter. After induction, the cells were incubated with various concentrations of chimeric KCNK9 antibody for 30 minutes, followed by secondary anti-human Fc FITC conjugate. Chimeric antibody binding was analyzed by flow cytometry.

T1 sequence (Q9NPC2 whole entry, the tested form may be a part): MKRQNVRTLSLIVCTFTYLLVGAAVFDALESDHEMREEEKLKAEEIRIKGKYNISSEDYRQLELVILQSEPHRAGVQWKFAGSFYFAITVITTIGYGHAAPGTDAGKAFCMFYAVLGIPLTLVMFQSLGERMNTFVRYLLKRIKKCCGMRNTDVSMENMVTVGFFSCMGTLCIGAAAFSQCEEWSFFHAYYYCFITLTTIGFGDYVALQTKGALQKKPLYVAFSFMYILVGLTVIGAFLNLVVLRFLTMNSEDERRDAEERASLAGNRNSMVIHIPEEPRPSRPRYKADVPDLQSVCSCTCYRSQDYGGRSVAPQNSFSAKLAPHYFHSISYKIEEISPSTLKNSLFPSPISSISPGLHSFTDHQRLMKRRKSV
Chain of human FcγIII (P08637 17-254): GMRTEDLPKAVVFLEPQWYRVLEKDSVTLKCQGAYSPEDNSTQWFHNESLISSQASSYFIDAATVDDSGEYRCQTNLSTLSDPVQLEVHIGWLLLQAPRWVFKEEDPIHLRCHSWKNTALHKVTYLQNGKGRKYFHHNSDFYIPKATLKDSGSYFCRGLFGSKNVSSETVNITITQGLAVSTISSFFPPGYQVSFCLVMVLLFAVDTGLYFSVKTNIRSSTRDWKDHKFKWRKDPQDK

B1: afucosyl humanized KCNK9 monoclonal antibody AF-H4L3 (antibody, V domains shown)
VH: QVQLVQSGAEVKKPGASVKVSCKASGYSFTGYYMYWVRQAPGQRLEWMGEINPSSGGTTYNQKFKARVTLTVDKSASTAYMELSSLRSEDTAVYYCARSGLRRRFYAMDYWGQGTLVTVSS
VL: EIVLTQSPATLSLSPGERATLSCRASESVDSFGTTFMHWYQQKPGQPPRLLIYRASNLESGIPARFSGSGSRTDFTLTISSLEPEDFATYYCQQSNKDPPTFGGGTKVEIK
modifications: afucosyl N-glycan on the Fc region (made in fut8-/- CHO cells)
Regarding B1, the “ADCC activity (lysis of KCNK9-expressing HEK293 target cells by NK92-3F9 effector cells)” value with human FcγIII amounted to 100 fold.

B2: afucosyl humanized KCNK9 monoclonal antibody AF-H5L2 (antibody, V domains shown)
VH: B1 VH with M48I, V68A
VL: B1 VL with P47A, T89V
modifications: afucosyl N-glycan on the Fc region (made in fut8-/- CHO cells)
B2: in the experiment with human FcγIII, the “ADCC activity (lysis of KCNK9-expressing HEK293 target cells by NK92-3F9 effector cells)” value is 100 fold.

B3: humanized KCNK9 antibody clone H4L3 (antibody, V domains shown)
VH: B1 VH
VL: B1 VL
notes: Variable regions cloned into a human IgG1 expression vector; produced in 293 cells
B3: the binding result in experiment [1] is “binds”.

B4: humanized KCNK9 antibody clone H5L2 (antibody, V domains shown)
VH: B1 VH with M48I, V68A
VL: B1 VL with P47A, T89V
notes: as for B3
On to B4, for which the binding result in experiment [1] is on record as “binds”.

B5: chimeric KCNK9 antibody (antibody, V domains shown)
VH: EVQLQQSGPELVKPGASVKTSCKASGYSFTGYYMYWVKQSPEKSLEWIGEINPSSGGTTYNQKFKAKATLTVDKSSSTAYMQLKSLTFEDSAVYYCARSGLRRRFYAMDYWGQGTSVTVSS
VL: DIVLTQSPASLAVSLGQRATVSCRASESVDSFGTTFMHWYQQKPGQPPKLLIYRASNLESGIPARFSGSGSRTDFTLTINPVEADDVATYYCQQSNKDPPTFGGGSKLEIK
notes: Variable regions of the mouse anti-KCNK9 monoclonal antibody (mu-mAb) fused with human antibody IgG1 constant regions; also called chimeric antibody; chimeric KCNK9 monoclonal antibody
Take B5: in experiment [2], the concentration for a half-maximal effect (EC50) (as a rule, the midpoint of the concentration-response curve) is about 0.3 µg/mL.
